In PMC6445466, “Structural determination of the complement inhibitory domain of Borrelia burgdorferi BBK32 provides insight into classical pathway complement evasion by Lyme disease spirochetes” (PLoS Pathogens, 2019):

Assays:
Conditions in all cases: both partners purified
[1] = target: T1, human C1r, full-length enzyme (human, UniProt P00736 18-705); assay: SPR; Biacore T200, 25°C; borrelial protein immobilised by amine coupling; C1r as analyte, single-cycle kinetics, five-fold dilution series 1.6 to 1000 nM; HBS-T with 5 mM CaCl2; 1:1 kinetic fit; triplicate
T1 construct: complement C1r, human, 92 kDa, CUB1-EGF-CUB2-CCP1-CCP2-SP; bought as purified full-length enzyme; source: bought: Complement Technology (Tyler, TX), purified
T1 sequence: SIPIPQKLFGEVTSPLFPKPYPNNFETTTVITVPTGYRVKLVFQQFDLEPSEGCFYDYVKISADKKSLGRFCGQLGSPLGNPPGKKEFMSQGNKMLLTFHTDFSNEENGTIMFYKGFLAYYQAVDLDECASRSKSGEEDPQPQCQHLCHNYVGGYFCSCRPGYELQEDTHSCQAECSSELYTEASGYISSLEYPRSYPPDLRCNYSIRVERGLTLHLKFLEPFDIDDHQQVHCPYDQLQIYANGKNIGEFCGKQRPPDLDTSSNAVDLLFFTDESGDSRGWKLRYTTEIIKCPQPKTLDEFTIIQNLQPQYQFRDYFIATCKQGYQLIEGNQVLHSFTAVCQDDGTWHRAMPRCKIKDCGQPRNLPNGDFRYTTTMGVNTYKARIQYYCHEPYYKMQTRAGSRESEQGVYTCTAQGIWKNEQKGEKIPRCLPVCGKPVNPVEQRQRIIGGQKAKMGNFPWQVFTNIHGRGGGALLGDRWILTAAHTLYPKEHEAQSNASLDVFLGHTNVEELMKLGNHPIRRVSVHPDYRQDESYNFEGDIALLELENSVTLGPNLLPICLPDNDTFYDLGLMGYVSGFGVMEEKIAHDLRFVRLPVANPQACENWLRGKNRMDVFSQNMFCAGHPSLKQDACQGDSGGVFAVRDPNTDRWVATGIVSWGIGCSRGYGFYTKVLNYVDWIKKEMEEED

human C1 complex = target: T2, human C1 complex (human, UniProt P02745 23-245; P02746 28-253; P02747 29-245); assay: SPR; Biacore T200, 25°C; borrelial protein immobilised by amine coupling (CMD200M chip); C1 as analyte, two-fold dilution series 0 to 150 nM, 2 min association, 3 min dissociation; HBS-T (20 mM HEPES pH 7.3, 140 mM NaCl, 0.005% Tween-20) with 5 mM CaCl2; 1:1 kinetic fit; triplicate
T2 construct: C1q subunit A, human; C1q subunit B, human; C1q subunit C, human; complement C1r, human, within the C1r2C1s2 heterotetramer; complement C1s, human, within the C1r2C1s2 heterotetramer; also called first component of complement; source: bought: Complement Technology (Tyler, TX), purified; copies: + + + 2 + 2

[2] = target: T3, recombinant His-C1r-CCP2-SP (residues 376-705) (human, UniProt P00736 376-705); assay: SPR; Biacore T200, 25°C; BBK32(206-348) immobilised by amine coupling; C1r fragments as analytes, single-cycle kinetics as for C1r, 0.8 to 500 nM; 1:1 kinetic fit; triplicate
T3 construct: complement C1r, human, CCP2-SP domains, residues 376-705 (domains as defined by UniProt P00736); also called rHIS-C1r-CCP2-SP
T3 sequence: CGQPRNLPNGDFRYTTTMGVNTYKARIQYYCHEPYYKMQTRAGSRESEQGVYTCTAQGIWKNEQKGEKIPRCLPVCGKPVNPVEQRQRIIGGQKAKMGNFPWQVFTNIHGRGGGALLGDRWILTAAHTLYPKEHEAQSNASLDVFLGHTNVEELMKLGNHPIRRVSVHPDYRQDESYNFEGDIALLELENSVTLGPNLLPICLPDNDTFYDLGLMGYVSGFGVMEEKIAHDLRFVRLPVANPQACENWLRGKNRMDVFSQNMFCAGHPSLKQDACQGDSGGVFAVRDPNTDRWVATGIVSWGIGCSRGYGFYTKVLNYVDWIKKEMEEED

[3] = target: T4, C1r CCP1-CCP2-SP-auto, autolytic fragment of human C1r (Leu-300 to Asp-705) (human, UniProt P00736 300-705); assay: as above
T4 construct: complement C1r, human, residues Leu-300 to Asp-705 by mass spectrometry: last six residues of CUB2 and the whole of CCP1-CCP2-SP; Migrates as one 55 kDa band on non-reducing SDS-PAGE; also called 55 kDa fragment; source: autolytic digestion of bought C1r (Complement Tech) overnight at 37°C, purified
T4 sequence: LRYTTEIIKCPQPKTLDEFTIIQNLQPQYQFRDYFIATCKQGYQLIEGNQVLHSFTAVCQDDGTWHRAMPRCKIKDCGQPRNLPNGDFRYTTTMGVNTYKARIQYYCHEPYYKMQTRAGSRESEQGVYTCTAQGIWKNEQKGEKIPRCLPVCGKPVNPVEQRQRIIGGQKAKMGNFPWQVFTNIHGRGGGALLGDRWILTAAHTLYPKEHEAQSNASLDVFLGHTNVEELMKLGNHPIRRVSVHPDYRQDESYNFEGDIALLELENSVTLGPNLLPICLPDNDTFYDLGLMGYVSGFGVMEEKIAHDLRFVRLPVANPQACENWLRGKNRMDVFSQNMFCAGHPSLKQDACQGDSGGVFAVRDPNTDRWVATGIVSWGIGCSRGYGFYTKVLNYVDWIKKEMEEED

B1: BGD19-C (residues 206-354, B. garinii strain IP90) (domain or fragment)
chain: SNRYQSYLEGVKYNVDSAIKTITKIYDTYTLFLTKLTQMYSTRLDNLAKAKAKEEAAKFTKEDLEKNFKTLLNYIQVSVKTATNFVYINDTHAKRKLENIETKIKTLIAKIKEKSNLYQAYKAIVRPILLMRDSLKEVQGAIDKNGIWY
Kd [1]: 5.3 nM | koff [1]: 8.1e-05 s⁻¹ | kon [1]: 15000 M⁻¹ s⁻¹ | Kd (human C1 complex): 3 nM | koff (human C1 complex): 0.00035 s⁻¹ | kon (human C1 complex): 120000 M⁻¹ s⁻¹

B2: BXK32-C (BBK32-C E308K-Q319K-E324Q) (domain or fragment, Borrelia burgdorferi strain B31, UniProt O50835 206-354, looked up)
chain: SNRYQSYLEGVKYNVDSAIQTITKIYNTYTLFSTKLTQMYSTRLDNFAKAKAKEEAAKFTKEDLEKNFKTLLNYIQVSVKTAANFVYINDTHAKRKLENIEAKIKTLIAKIKEKSNLYQAYKAIVTSILLMRDSLKEVQGIIDKNGVWY
notes: BBK32, Borrelia burgdorferi strain B31, residues 206-354 (the limits of BBK32-C) with three residues changed to those of B. garinii BGD19; also called BBK32-E308K-Q319K-E324Q; chimeric BBK32-C; source: recombinant, E. coli codon-optimized synthetic DNA in pT7HMT, purified to homogeneity
Kd [1]: 7.1 nM | koff [1]: 0.00016 s⁻¹ | kon [1]: 22000 M⁻¹ s⁻¹

B3: BBK32(206-348) (residues 206-348, B. burgdorferi strain B31) (domain or fragment)
chain: SNRYQSYLEGVKYNVDSAIQTITKIYNTYTLFSTKLTQMYSTRLDNFAKAKAKEEAAKFTKEDLEKNFKTLLNYIQVSVKTAANFVYINDTHAKRKLENIEAEIKTLIAKIKEQSNLYEAYKAIVTSILLMRDSLKEVQGIID
notes: BBK32, Borrelia burgdorferi strain B31, residues 206-348 (lacks six C-terminal residues relative to BBK32-C); also called BBK32-C(206-348); source: recombinant, sub-cloned into pT7HMT, purified to homogeneity
koff [2]: 3.7e-05 s⁻¹ | kon [2]: 9400 M⁻¹ s⁻¹ | koff [3]: 2.6e-05 s⁻¹ | kon [3]: 17000 M⁻¹ s⁻¹ | Kd [1]: 0.75 nM | koff [1]: 9.7e-06 s⁻¹ | kon [1]: 13000 M⁻¹ s⁻¹

B4: BBK32-C (residues 206-354, B. burgdorferi strain B31) (domain or fragment)
chain: SNRYQSYLEGVKYNVDSAIQTITKIYNTYTLFSTKLTQMYSTRLDNFAKAKAKEEAAKFTKEDLEKNFKTLLNYIQVSVKTAANFVYINDTHAKRKLENIEAEIKTLIAKIKEQSNLYEAYKAIVTSILLMRDSLKEVQGIIDKNGVWY
notes: BBK32, Borrelia burgdorferi sensu stricto strain B31, residues 206-354; also called BBK32(206-354); source: recombinant, sub-cloned into pT7HMT, purified to homogeneity
Kd [1]: 5.1 nM | koff [1]: 8.6e-05 s⁻¹ | kon [1]: 17000 M⁻¹ s⁻¹
